Square brackets hold non-standard residues; d marks the D form. Peptide text beside a SMILES is read from it. * marks the point of attachment. Ala(1H-tetrazol-5-yl) = N[C@@H](Cc1nnn[nH]1)C(=O)O; Ms = CS(=O)(=O)*
Columns and labels:
[1] = Peptide stability test, Tris buffer (pH 7.0), 60° C. storage, HPLC remaining rate; type: physicochemical; conditions: Table 7-2; 100 μM in Tris buffer pH 7.0
Method: Peptides 1, 2 and 6 to 9 synthesized in Example 2 were weighed and dissolved in Tris buffer (pH 7.0) to prepare 1.0 mM peptide solutions. Each solution was filtered with a Chromatdisk (product of Merck Millipore, Millex-GV, 0.22 μm). The filtrate was diluted to 100 μM with Tris buffer (pH 7.0) and dispensed into a tube (Protein LoBind Tube by Eppendorf Co.). The prepared peptide solutions were incubated for 1 week or 2 weeks in a 60° C. thermostatic bath to obtain stored samples. A simultaneously prepared sample among the peptide solutions that was not stored was used as a standard sample (initial sample). The standard sample and the stored samples were stored at −30° C. until sample analysis. Each stored sample was measured under the following HPLC analysis conditions 2, and the remaining rate after correction for water for each peptide among the stored samples was calculated in the same manner as Example 3. Guard column: XSelect CSH C18 by Waters Co., 5 μm, 4.6×20 mm Guard Cartridge Detection wavelength: 220 nm Mobile phase A: 0.1% formic acid aqueous solution Mobile phase B: 0.1% acetonitrile formate solution Measuring time: 20 minutes Measuring sample injection rate: 50 μL Flow rate: 1.0 mL/min Column temperature: 40° C. Sample cooler: 25° C. Mobile phase delivery: The mixing ratio of mobile phase A and mobile phase B was varied as shown in Table 5 for linear concentration gradient control. Peptides 12 to 25, 27 and 28 synthesized in Example 2 were weighed and dissolved in Tris buffer (pH 7.0) to prepare 1.0 mM peptide solutions. Each solution was filtered with a Chromatdisk (product of Merck Millipore, Millex-GV, 0.22 μm). The filtrate was diluted to 100 μM with Tris buffer (pH 7.0) and dispensed into a tube (Protein LoBind Tube by Eppendorf Co.). The prepared peptide solutions were incubated for one week or 2 weeks in a 60° C. thermostatic bath to obtain stored samples. A simultaneously prepared sample among the peptide solutions that was not stored was used as a standard sample (initial sample). The standard sample and the stored samples were stored at −30° C. until sample analysis. The remaining rate after correction for water for each peptide among the stored samples was calculated in the same manner as Example 4, and the results are shown in Table 7. Peptides 29 to 34 synthesized in Example 2 were weighed and dissolved in Tris buffer (pH 7.0) to prepare 1.0 mM peptide solutions. Each solution was filtered with a Chromatdisk (product of Merck Millipore, Millex-GV, 0.22 μm). The filtrate was diluted to 100 μM with Tris buffer (pH 7.0) and dispensed into a tube (Protein LoBind Tube by Eppendorf Co.). The prepared peptide solutions were incubated for 2 weeks in a 60° C. thermostatic bath to obtain stored samples. A simultaneously prepared sample among the peptide solutions that was not stored was used as a standard sample (initial sample). The standard sample and the stored samples were stored at −30° C. until sample analysis. The remaining rate after correction for water for each peptide among the stored samples was calculated in the same manner as Example 4, and the results are shown in Table 7-2. Peptide 26 synthesized in Example 2 was weighed and dissolved in Tris buffer (pH 7.0) to prepare a 1.0 mM peptide solution. The solution was filtered with a Chromatdisk (product of Merck Millipore, Millex-GV, 0.22 μm). The filtrate was diluted to 100 μM with Tris buffer (pH 7.0) and dispensed into a tube (Protein LoBind Tube by Eppendorf Co.). The prepared peptide solution was incubated for one week or 2 weeks in a 60° C. thermostatic bath to obtain stored samples. A simultaneously prepared sample among the peptide solutions that was not stored was used as a standard sample (initial sample). The standard sample and the stored sample were stored at −30° C. until sample analysis. […]

[2] = molecular target: T1, VPAC1 receptor (UniProt P32241 31-457, limits assumed); assay: cell-based or functional assay
T1 sequence (looked up): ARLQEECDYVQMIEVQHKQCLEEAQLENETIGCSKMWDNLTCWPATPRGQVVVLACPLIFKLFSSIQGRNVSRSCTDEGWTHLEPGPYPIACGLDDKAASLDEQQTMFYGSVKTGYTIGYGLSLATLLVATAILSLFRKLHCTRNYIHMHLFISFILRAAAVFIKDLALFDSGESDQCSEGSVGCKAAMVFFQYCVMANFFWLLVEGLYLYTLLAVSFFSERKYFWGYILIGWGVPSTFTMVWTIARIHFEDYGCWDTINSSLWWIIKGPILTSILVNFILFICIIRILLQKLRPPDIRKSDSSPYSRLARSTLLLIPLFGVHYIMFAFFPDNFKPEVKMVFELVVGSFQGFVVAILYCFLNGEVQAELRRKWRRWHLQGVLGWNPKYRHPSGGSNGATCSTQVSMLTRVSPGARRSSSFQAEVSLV

[3] = molecular target: T2, PAC1 receptor (UniProt P41586 21-468, limits assumed); assay: cell-based or functional assay
T2 sequence (looked up): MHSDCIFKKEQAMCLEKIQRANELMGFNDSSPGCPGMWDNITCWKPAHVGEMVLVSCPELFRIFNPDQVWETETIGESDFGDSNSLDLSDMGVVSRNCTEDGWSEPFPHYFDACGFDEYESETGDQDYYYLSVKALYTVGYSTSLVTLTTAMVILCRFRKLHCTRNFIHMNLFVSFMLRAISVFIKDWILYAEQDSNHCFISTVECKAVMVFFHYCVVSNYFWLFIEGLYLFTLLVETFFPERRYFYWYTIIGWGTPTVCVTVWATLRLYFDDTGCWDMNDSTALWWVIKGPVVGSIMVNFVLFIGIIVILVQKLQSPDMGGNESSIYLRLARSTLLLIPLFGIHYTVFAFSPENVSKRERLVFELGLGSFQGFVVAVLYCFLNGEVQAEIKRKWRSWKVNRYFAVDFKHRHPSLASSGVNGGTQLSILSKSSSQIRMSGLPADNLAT

| Molecule | remaining rate after correction for water, 60° C., 2 weeks preservation [1] | EC50 (VPAC1R), cAMP inducing effect [2] | EC50 (PAC1R), cAMP inducing effect [3] |
| --- | --- | --- | --- |
| CC[C@H](C)[C@H](NC(=O)[C@H](C)NC(=O)[C@H](Cc1nnn[nH]1)NC(=O)[C@H](CO)NC(=O)[C@H](Cc1c[nH]cn1)NS(C)(=O)=O)C(=O)N[C@@H](Cc1ccccc1)C(=O)N[C@H](C(=O)N[C@@H](Cc1nnn[nH]1)C(=O)N[C@@H](CO)C(=O)N[C@@H](Cc1ccc(O)cc1)C(=O)N[C@@H](CO)C(=O)N[C@@H](CCCNC(=N)N)C(=O)N[C@@H](Cc1ccc(O)cc1)C(=O)N[C@@H](CCCNC(=N)N)C(=O)N[C@@H](CCCCN)C(=O)N[C@@H](CCC(N)=O)C(=O)N[C@@H](CC(C)C)C(=O)N[C@@H](C)C(=O)N[C@H](C(=O)N[C@@H](CCCCN)C(=O)N[C@@H](CCCCN)C(=O)N[C@@H](Cc1ccc(O)cc1)C(=O)N[C@@H](CC(C)C)C(=O)N[C@@H](C)C(=O)N[C@@H](C)C(=O)N[C@H](C(=O)N[C@@H](CC(C)C)C(N)=O)C(C)C)C(C)C)[C@@H](C)O [Peptide 30] (Ms-HS[Ala(1H-tetrazol-5-yl)]AIFT[Ala(1H-tetrazol-5-yl)]SYSRYRKQLAVKKYLAAVL-NH2) | 92.2% | – | – |
| CC[C@H](C)[C@H](NC(=O)[C@H](C)NC(=O)[C@H](Cc1nnn[nH]1)NC(=O)[C@H](CO)NC(=O)[C@H](Cc1c[nH]cn1)NC(C)=O)C(=O)N[C@@H](Cc1ccccc1)C(=O)N[C@H](C(=O)N[C@@H](Cc1nnn[nH]1)C(=O)N[C@@H](CO)C(=O)N[C@@H](Cc1ccc(O)cc1)C(=O)N[C@@H](CO)C(=O)N[C@@H](CCCNC(=N)N)C(=O)N[C@@H](Cc1ccc(O)cc1)C(=O)N[C@@H](CCCNC(=N)N)C(=O)N[C@@H](CCCCN)C(=O)N[C@@H](CCC(N)=O)C(=O)N[C@@H](C)C(=O)N[C@@H](C)C(=O)N[C@H](C(=O)N[C@@H](CCCCN)C(=O)N[C@@H](CCCCN)C(=O)N[C@@H](Cc1ccc(O)cc1)C(=O)N[C@@H](CC(C)C)C(=O)N[C@@H](C)C(=O)N[C@@H](C)C(=O)N[C@H](C(=O)N[C@@H](CC(C)C)C(N)=O)C(C)C)C(C)C)[C@@H](C)O [Peptide 32] (Ac-HS[Ala(1H-tetrazol-5-yl)]AIFT[Ala(1H-tetrazol-5-yl)]SYSRYRKQAAVKKYLAAVL-NH2) | 88.7% | – | – |
| CC[C@H](C)[C@H](NC(=O)[C@H](C)NC(=O)[C@H](Cc1nnn[nH]1)NC(=O)[C@H](C)NC(=O)[C@H](Cc1c[nH]cn1)NC(C)=O)C(=O)N[C@@H](Cc1ccccc1)C(=O)N[C@H](C(=O)N[C@@H](Cc1nnn[nH]1)C(=O)N[C@@H](CO)C(=O)N[C@@H](Cc1ccc(O)cc1)C(=O)N[C@@H](CO)C(=O)N[C@@H](CCCNC(=N)N)C(=O)N[C@@H](Cc1ccc(O)cc1)C(=O)N[C@@H](CCCNC(=N)N)C(=O)N[C@@H](CCCCN)C(=O)N[C@@H](CCC(N)=O)C(=O)N[C@@H](C)C(=O)N[C@@H](C)C(=O)N[C@H](C(=O)N[C@@H](CCCCN)C(=O)N[C@@H](CCCCN)C(=O)N[C@@H](Cc1ccc(O)cc1)C(=O)N[C@@H](CC(C)C)C(=O)N[C@@H](C)C(=O)N[C@@H](C)C(=O)N[C@H](C(=O)N[C@@H](CC(C)C)C(N)=O)C(C)C)C(C)C)[C@@H](C)O [Peptide 33] (Ac-HA[Ala(1H-tetrazol-5-yl)]AIFT[Ala(1H-tetrazol-5-yl)]SYSRYRKQAAVKKYLAAVL-NH2) | 85.3% | – | – |
| CC[C@H](C)[C@H](NC(=O)[C@H](C)NC(=O)[C@H](Cc1nnn[nH]1)NC(=O)[C@H](CO)NC(=O)[C@H](Cc1c[nH]cn1)NC(C)=O)C(=O)N[C@@H](Cc1ccccc1)C(=O)N[C@H](C(=O)N[C@@H](Cc1nnn[nH]1)C(=O)N[C@@H](CO)C(=O)N[C@@H](Cc1ccc(O)cc1)C(=O)N[C@@H](CO)C(=O)N[C@@H](CCCNC(=N)N)C(=O)N[C@@H](Cc1ccc(O)cc1)C(=O)N[C@@H](CCCNC(=N)N)C(=O)N[C@@H](CCCCN)C(=O)N[C@@H](C)C(=O)N[C@@H](C)C(=O)N[C@@H](C)C(=O)N[C@H](C(=O)N[C@@H](CCCCN)C(=O)N[C@@H](CCCCN)C(=O)N[C@@H](Cc1ccc(O)cc1)C(=O)N[C@@H](CC(C)C)C(=O)N[C@@H](C)C(=O)N[C@@H](C)C(=O)N[C@H](C(=O)N[C@@H](CC(C)C)C(N)=O)C(C)C)C(C)C)[C@@H](C)O [Peptide 34] (Ac-HS[Ala(1H-tetrazol-5-yl)]AIFT[Ala(1H-tetrazol-5-yl)]SYSRYRKAAAVKKYLAAVL-NH2) | 96.9% | – | – |
| HSXGIFTDSYSRYRKQMAVKKYLAAVL (Tz (aspartic acid with carboxyl group replaced by tetrazole) at position 3; C-terminal amide (NH2)) [Peptide 3] | – | 0.101 nM | – |
| HSXGIFTXSYSRYRKQMAVKKYLAAVL (N-terminal acetyl (Ac-); Tz (aspartic acid with carboxyl group replaced by tetrazole) at positions 3 and 8; C-terminal amide (NH2)) [Peptide 10] | – | 0.101 nM | 0.076 nM |
| HSXGIFTXSYSRYRKQMAVKKYLAAVL (Tz (aspartic acid with carboxyl group replaced by tetrazole) at positions 3 and 8; C-terminal amide (NH2)) [Peptide 5] | – | 0.064 nM | 0.033 nM |
| HSXGIFTXSYARYRKQLAVKKYLAAVL (N-terminal acetyl (Ac-); Tz (aspartic acid with carboxyl group replaced by tetrazole) at positions 3 and 8; C-terminal amide (NH2)) [Peptide 16] | – | 0.065 nM | 0.33 nM |
| HSXGIFTXAYSRYRKQLAVKKYLAAVL (N-terminal acetyl (Ac-); Tz (aspartic acid with carboxyl group replaced by tetrazole) at positions 3 and 8; C-terminal amide (NH2)) [Peptide 15] | – | 0.149 nM | 0.061 nM |
| HSDGIFTXSYSRYRKQMAVKKYLAAVL (Tz (aspartic acid with carboxyl group replaced by tetrazole) at position 8; C-terminal amide (NH2)) [Peptide 4] | – | 0.053 nM | 0.04 nM |
| HSXGIFTXSYSRYRKQXAVKKYLAAVL (N-terminal mesyl (Ms-); Tz (aspartic acid with carboxyl group replaced by tetrazole) at positions 3 and 8; norleucine at position 17; C-terminal amide (NH2)) [Peptide 11] | – | 0.19 nM | 0.038 nM |
| HSXGIFTXSYSRYRKXLAVKKYLAAVL (N-terminal acetyl (Ac-); Tz (aspartic acid with carboxyl group replaced by tetrazole) at positions 3 and 8; egTz (glutamine with amide replaced by tetrazole) at position 16; C-terminal amide (NH2)) [Peptide 13] | – | 0.072 nM | 0.132 nM |
| HSXGIFTXSYSRYRKALAVKKYLAAVL (N-terminal acetyl (Ac-); Tz (aspartic acid with carboxyl group replaced by tetrazole) at positions 3 and 8; C-terminal amide (NH2)) [Peptide 17] | – | 0.132 nM | 0.099 nM |
| HAXGIFTXSYSRYRKQLAVKKYLAAVL (N-terminal acetyl (Ac-); Tz (aspartic acid with carboxyl group replaced by tetrazole) at positions 3 and 8; C-terminal amide (NH2)) [Peptide 14] | – | 0.099 nM | 0.074 nM |
| HSXGIFTXSYSRYRKQLAVKKYLAAVL (N-terminal mesyl (Ms-); Tz (aspartic acid with carboxyl group replaced by tetrazole) at positions 3 and 8; C-terminal amide (NH2)) [Peptide 12] | – | 0.087 nM | 0.023 nM |
